Results reported in the Human Domainome abundance scans (Beltran et al. 2025).
± gives the uncertainty stated by the source.

B1: POU domain, class 4, transcription factor 1, residues 266 to 347; numbered along this chain, Q01851 (parent)
chain: RELEAFAERFKQRRIKLGVTQADVGSALANLKIPGVGSLSQSTICRFESLTLSHNNMIALKPILQAWLEEAEGAQREKMNKP

Variants of: B1
Test: abundance fitness (aPCA) (normalised: wild type 0, dead -1); higher = more abundant; growth selection in yeast, the domain comes from the species named
Details: Homo sapiens

RELEAFAERFKQRRIKLGVTQADVGSALANLKIPGVGSLSQSTICRFESLTLSHNNMIALKPILQAWLEEAEGAQREKMWKP [N80W] and RELEAFAERFKQRRIKLGVTQADVGSALANLKIPGVGSLSQSTICRFESLTLSHNNMIALKPILQAWLEEAEGAQREKMYKP [N80Y] are within error of each other in abundance fitness: -0.089 ± 0.045 for the first, -0.037 ± 0.11 for the second.

RELEAFAERFKQRRIKLGVTQADVGSALANLKIPGVGSLSQSTICRFESLTLSHNNMIALKPILQAWLEEAEGAQREKMPKP [N80P] and RELEAFAERFKQRRIKLGVTQADVGSALANLKIPGVGSLSQSTICRFESLTLSHNNMIALKPILQAWLEEAEGAQREKMKKP [N80K] are within error of each other in abundance fitness: 0.073 ± 0.058 for the first, -0.001 ± 0.065 for the second.

Going from RELEAFAERFKQRRIKLGVTQADVGSALANLKIPGVGSLSQSTICRFESLTLSHNNMIALKPILQAWLEEAEGAQREKMQKP [N80Q] to RELEAFAERFKQRRIKLGVTQADVGSALANLKIPGVGSLSQSTICRFESLTLSHNNMIALKPILQAWLEEAEGAQREKMIKP [N80I], the abundance fitness falls from 0.091 ± 0.061 to -0.121 ± 0.14.

RELEAFAERFKQRRIKLGVTQADVGSALANLKIPGVGSLSQSTICRFESLTLSHNNMIALKPILQAWLEEAEGAQREKMRKP [N80R] and RELEAFAERFKQRRIKLGVTQADVGSALANLKIPGVGSLSQSTICRFESLTLSHNNMIALKPILQAWLEEAEGAQREKMMKP [N80M] are within error of each other in abundance fitness: -0.032 ± 0.034 for the first, -0.004 ± 0.045 for the second.

Going from RELEAFAERFKQRRIKLGVTQADVGSALANLKIPGVGSLSQSTICRFESLTLSHNNMIALKPILQAWLEEAEGAQREKMVKP [N80V] to RELEAFAERFKQRRIKLGVTQADVGSALANLKIPGVGSLSQSTICRFESLTLSHNNMIALKPILQAWLEEAEGAQREKMTKP [N80T], the abundance fitness falls from 0.098 ± 0.042 to -0.007 ± 0.059.

RELEAFAERFKQRRIKLGVTQADVGSALANLKIPGVGSLSQSTICRFESLTLSHNNMIALKPILQAWLEEAEGAQREKMSKP [N80S] and RELEAFAERFKQRRIKLGVTQADVGSALANLKIPGVGSLSQSTICRFESLTLSHNNMIALKPILQAWLEEAEGAQREKMLKP [N80L] are within error of each other in abundance fitness: 0.051 ± 0.04 for the first, -0.026 ± 0.039 for the second.

RELEAFAERFKQRRIKLGVTQADVGSALANLKIPGVGSLSQSTICRFESLTLSHNNMIALKPILQAWLEEAEGAQREKMNTP [K81T] and RELEAFAERFKQRRIKLGVTQADVGSALANLKIPGVGSLSQSTICRFESLTLSHNNMIALKPILQAWLEEAEGAQREKMNCP [K81C] are within error of each other in abundance fitness: 0.03 ± 0.098 for the first, 0.1 ± 0.15 for the second.

RELEAFAERFKQRRIKLGVTQADVGSALANLKIPGVGSLSQSTICRFESLTLSHNNMIALKPILQAWLEEAEGAQREKMNIP [K81I] and RELEAFAERFKQRRIKLGVTQADVGSALANLKIPGVGSLSQSTICRFESLTLSHNNMIALKPILQAWLEEAEGAQREKMNDP [K81D] are within error of each other in abundance fitness: -0.112 ± 0.32 for the first, -0.024 ± 0.11 for the second.

RELEAFAERFKQRRIKLGVTQADVGSALANLKIPGVGSLSQSTICRFESLTLSHNNMIALKPILQAWLEEAEGAQREKMNMP [K81M] and RELEAFAERFKQRRIKLGVTQADVGSALANLKIPGVGSLSQSTICRFESLTLSHNNMIALKPILQAWLEEAEGAQREKMNVP [K81V] are within error of each other in abundance fitness: -0.059 ± 0.14 for the first, -0.047 ± 0.059 for the second.

Compared with RELEAFAERFKQRRIKLGVTQADVGSALANLKIPGVGSLSQSTICRFESLTLSHNNMIALKPILQAWLEEAEGAQREKMNYP [K81Y], RELEAFAERFKQRRIKLGVTQADVGSALANLKIPGVGSLSQSTICRFESLTLSHNNMIALKPILQAWLEEAEGAQREKMNLP [K81L] is higher in abundance fitness: -0.224 ± 0.12 for the first, 0.043 ± 0.07 for the second.

RELEAFAERFKQRRIKLGVTQADVGSALANLKIPGVGSLSQSTICRFESLTLSHNNMIALKPILQAWLEEAEGAQREKMNQP [K81Q] and RELEAFAERFKQRRIKLGVTQADVGSALANLKIPGVGSLSQSTICRFESLTLSHNNMIALKPILQAWLEEAEGAQREKMNFP [K81F] are within error of each other in abundance fitness: -0.042 ± 0.18 for the first, 0.198 ± 0.27 for the second.

Going from RELEAFAERFKQRRIKLGVTQADVGSALANLKIPGVGSLSQSTICRFESLTLSHNNMIALKPILQAWLEEAEGAQREKMNWP [K81W] to RELEAFAERFKQRRIKLGVTQADVGSALANLKIPGVGSLSQSTICRFESLTLSHNNMIALKPILQAWLEEAEGAQREKMNHP [K81H], the abundance fitness falls from 0.027 ± 0.056 to -0.432 ± 0.39.

RELEAFAERFKQRRIKLGVTQADVGSALANLKIPGVGSLSQSTICRFESLTLSHNNMIALKPILQAWLEEAEGAQREKMNSP [K81S] and RELEAFAERFKQRRIKLGVTQADVGSALANLKIPGVGSLSQSTICRFESLTLSHNNMIALKPILQAWLEEAEGAQREKMNGP [K81G] are within error of each other in abundance fitness: -0.016 ± 0.063 for the first, 0.021 ± 0.048 for the second.

Going from RELEAFAERFKQRRIKLGVTQADVGSALANLKIPGVGSLSQSTICRFESLTLSHNNMIALKPILQAWLEEAEGAQREKMNPP [K81P] to RELEAFAERFKQRRIKLGVTQADVGSALANLKIPGVGSLSQSTICRFESLTLSHNNMIALKPILQAWLEEAEGAQREKMNAP [K81A], the abundance fitness rises from -0.075 ± 0.14 to 0.148 ± 0.075.

RELEAFAERFKQRRIKLGVTQADVGSALANLKIPGVGSLSQSTICRFESLTLSHNNMIALKPILQAWLEEAEGAQREKMNKE [P82E] and RELEAFAERFKQRRIKLGVTQADVGSALANLKIPGVGSLSQSTICRFESLTLSHNNMIALKPILQAWLEEAEGAQREKMNKK [P82K] are within error of each other in abundance fitness: -0.005 ± 0.12 for the first, -0.047 ± 0.16 for the second.

RELEAFAERFKQRRIKLGVTQADVGSALANLKIPGVGSLSQSTICRFESLTLSHNNMIALKPILQAWLEEAEGAQREKMNKG [P82G] and RELEAFAERFKQRRIKLGVTQADVGSALANLKIPGVGSLSQSTICRFESLTLSHNNMIALKPILQAWLEEAEGAQREKMNKD [P82D] are within error of each other in abundance fitness: -0.011 ± 0.071 for the first, 0.019 ± 0.14 for the second.

RELEAFAERFKQRRIKLGVTQADVGSALANLKIPGVGSLSQSTICRFESLTLSHNNMIALKPILQAWLEEAEGAQREKMNKF [P82F] and RELEAFAERFKQRRIKLGVTQADVGSALANLKIPGVGSLSQSTICRFESLTLSHNNMIALKPILQAWLEEAEGAQREKMNKA [P82A] are within error of each other in abundance fitness: -0.105 ± 0.19 for the first, 0.086 ± 0.079 for the second.
